Data: the supplement of paper PMC9170038

Test system: K4 kissing-loop RNA reporter
Test: apparent KD of K4 kissing-loop reporter; higher = weaker reporter binding
Conditions: Eterna round: R107
Procedure: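 RNA-MaP round R107: designed RNA switches with theophylline, tryptophan, arginine or FMN aptamers are transcribed on-chip within common flanks. They are titrated with a labelled K4 kissing-loop RNA reporter in RNA-MaP buffer (100 mM Tris pH 7.5, 80 mM KCl, 4 mM MgCl2), without ligand or with the indicated ligand. Median apparent KD per design.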

[1] = input ligand: theophylline 20 uM
[2] = input ligand: tryptophan 2.4 mM
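Also: bound reporter read as fluorescence of individual clusters on recovered sequencing chips by microscopy, with normalized cluster intensities fitted with a binding model.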

AGUCGCAGUGAUGUUGCGAUUCCGUUGAGGGAGGAUAUUGGUAAUACAAGAAGGCCCGGCUGCGGGUGAUGUUCGCAAUAGGGCC [Exclusion FMN A GF19]
apparent KD of K4 kissing-loop reporter (input ligand: FMN 200 uM): 138 nM | apparent KD of K4 kissing-loop reporter (input ligand: arginine 13.2 mM): 108 nM | apparent KD of K4 kissing-loop reporter (input ligand: none): 117 nM | apparent KD of K4 kissing-loop reporter [1]: 112 nM | apparent KD of K4 kissing-loop reporter [2]: 105 nM

UAUUGGAGUGAUGUUCCAUUAACGAUCCUACGAGGACCGGUACGGCCGCCACUCGAAAUGCAGUGAUGUUGCAGCCAGCCGUAAA [Exclusion Trptophan A GF 7]
apparent KD of K4 kissing-loop reporter (input ligand: FMN 200 uM): 174 nM | apparent KD of K4 kissing-loop reporter (input ligand: arginine 13.2 mM): 167 nM | apparent KD of K4 kissing-loop reporter (input ligand: none): 183 nM | apparent KD of K4 kissing-loop reporter [1]: 188 nM | apparent KD of K4 kissing-loop reporter [2]: 162 nM

ACCGGACAAGAGGUGUCAGUGAUGUUGGCGCGAGGACCGGUACGGCCGCCACUCGAGGAAAGCGGUCACGCCCUGGUAGGACUGG [theeternabot_exclusion_KL_Trp_A_22]
apparent KD of K4 kissing-loop reporter (input ligand: FMN 200 uM): 169 nM | apparent KD of K4 kissing-loop reporter (input ligand: arginine 13.2 mM): 106 nM | apparent KD of K4 kissing-loop reporter (input ligand: none): 144 nM | apparent KD of K4 kissing-loop reporter [1]: 128 nM | apparent KD of K4 kissing-loop reporter [2]: 251 nM

CGAACACCCUCGGCCGCCACUAGCCGUAGCCUGCGCUUGCGGAGUGAUGUUCUGAAGCAGGAUGUUAGGACCGGGAGCUACAUCC [theeternabot_sameState_KL_Trp_B_33]
apparent KD of K4 kissing-loop reporter (input ligand: FMN 200 uM): 527 nM | apparent KD of K4 kissing-loop reporter (input ligand: arginine 13.2 mM): 542 nM | apparent KD of K4 kissing-loop reporter (input ligand: none): 446 nM | apparent KD of K4 kissing-loop reporter [1]: 428 nM | apparent KD of K4 kissing-loop reporter [2]: 371 nM

UCGGACCCUGGAGGAUAUGAGUCUAGUGAUGUUAGGCGGUCCAUGCCGGUGCGGCGUUAUGCCCUUUUAGAAGGCCAGGGUCCGA [#2 Exclusion - FMN B Attempt #14 (HarryS)]
apparent KD of K4 kissing-loop reporter (input ligand: FMN 200 uM): 143 nM | apparent KD of K4 kissing-loop reporter (input ligand: arginine 13.2 mM): 78.8 nM | apparent KD of K4 kissing-loop reporter (input ligand: none): 107 nM | apparent KD of K4 kissing-loop reporter [1]: 102 nM | apparent KD of K4 kissing-loop reporter [2]: 112 nM

GGAUAGGACAGAGGAUAUCUCUGAGGCAAGAAAACUUGUCUCUAAAGGGAUGACUCAGUGAUGUUGAGAGAAGGCUGUCCUAUCG [FmnBX 11 - #SwitchBubble #StaticStem]
apparent KD of K4 kissing-loop reporter (input ligand: FMN 200 uM): 295 nM | apparent KD of K4 kissing-loop reporter (input ligand: arginine 13.2 mM): 141 nM | apparent KD of K4 kissing-loop reporter (input ligand: none): 154 nM | apparent KD of K4 kissing-loop reporter [1]: 140 nM | apparent KD of K4 kissing-loop reporter [2]: 149 nM

CACGAUGAAUUCUCUAGGAGUGAUGUUUUUCGAGGACCGGUACGGCCGCCACUCGGACCACGAGCGUGGUAGCGGCGAAAAGACU [qpmullin]
apparent KD of K4 kissing-loop reporter (input ligand: FMN 200 uM): 782 nM | apparent KD of K4 kissing-loop reporter (input ligand: arginine 13.2 mM): 464 nM | apparent KD of K4 kissing-loop reporter (input ligand: none): 629 nM | apparent KD of K4 kissing-loop reporter [1]: 443 nM | apparent KD of K4 kissing-loop reporter [2]: 1070 nM

GCCGUAGAUUGAAGGAGCGAGGCUAAUUAAAGACCGAGUGAUGUUCGGGAGCGUGAAACUCCUCAGGUAGGUCGCAAUCUACGGC
apparent KD of K4 kissing-loop reporter (input ligand: FMN 200 uM): 217 nM | apparent KD of K4 kissing-loop reporter (input ligand: arginine 13.2 mM): 180 nM | apparent KD of K4 kissing-loop reporter (input ligand: none): 204 nM | apparent KD of K4 kissing-loop reporter [1]: 186 nM | apparent KD of K4 kissing-loop reporter [2]: 180 nM

AAUAAAAUCACGGCCGCCACUGAUGUUAAUAUUAGCAGUGAUGUUGCUAUGUCGUUUUUAUUUAACAGGACCGGGUGAAUAUUUA [JR_ExcTryptoB_Sub013]
apparent KD of K4 kissing-loop reporter (input ligand: FMN 200 uM): 183 nM | apparent KD of K4 kissing-loop reporter (input ligand: arginine 13.2 mM): 182 nM | apparent KD of K4 kissing-loop reporter (input ligand: none): 171 nM | apparent KD of K4 kissing-loop reporter [1]: 188 nM | apparent KD of K4 kissing-loop reporter [2]: 154 nM

UGCUCACAUAGAGGAUAUCUCAUAUGAGACAGUGAUGUUGUCUCAUAUAGACAUGUAAGUCUCAUGAGAGAAGGCUGUGUGAGCA [FMN B SS t8]
apparent KD of K4 kissing-loop reporter (input ligand: FMN 200 uM): 140 nM | apparent KD of K4 kissing-loop reporter (input ligand: arginine 13.2 mM): 106 nM | apparent KD of K4 kissing-loop reporter (input ligand: none): 117 nM | apparent KD of K4 kissing-loop reporter [1]: 99.3 nM | apparent KD of K4 kissing-loop reporter [2]: 113 nM

UGUGUUGUAUGACGGUUUGUCACUUAGUAUUAGGAUAUAUAAACAAAUAGAAGGGAUGGCGGAGUGAUGUUCCGCCGGCCGCCAU [FMN A Exl V10]
apparent KD of K4 kissing-loop reporter (input ligand: FMN 200 uM): 92.3 nM | apparent KD of K4 kissing-loop reporter (input ligand: arginine 13.2 mM): 92.9 nM | apparent KD of K4 kissing-loop reporter (input ligand: none): 80.8 nM | apparent KD of K4 kissing-loop reporter [1]: 94 nM | apparent KD of K4 kissing-loop reporter [2]: 97.6 nM

GCCGUAGAUGGAAGGAGCGUGGUUAAUGUAAGUGAUGUUUACGAGGUUAACAAUUAACCGCCACAGGUAGGUCGCCAUCUACGGC
apparent KD of K4 kissing-loop reporter (input ligand: FMN 200 uM): 72.8 nM | apparent KD of K4 kissing-loop reporter (input ligand: arginine 13.2 mM): 62.8 nM | apparent KD of K4 kissing-loop reporter (input ligand: none): 77.5 nM | apparent KD of K4 kissing-loop reporter [1]: 58.6 nM | apparent KD of K4 kissing-loop reporter [2]: 73.8 nM

AGAUGUCCCUGGGAUACCAGUCGGAGUCUCAGGGCUCGGAGUGAUGUUCUGGGAUGUUUCGGCCCUUGGCAGCCCUGGGACUCCC [#2 Exclusion - Theophylline B Attempt #26 (HarryS)]
apparent KD of K4 kissing-loop reporter (input ligand: FMN 200 uM): 573 nM | apparent KD of K4 kissing-loop reporter (input ligand: arginine 13.2 mM): 266 nM | apparent KD of K4 kissing-loop reporter (input ligand: none): 908 nM | apparent KD of K4 kissing-loop reporter [1]: 671 nM | apparent KD of K4 kissing-loop reporter [2]: 398 nM

UAGUCCUCUUCUUAUUUAUUCCCUAAUGCUAAGGAUAUCCGAAUUCGGAGAAGGUAGUGAUGUUACUUGAAGGGACAUAUUUAUU [AK6 Exc FMN A]
apparent KD of K4 kissing-loop reporter (input ligand: FMN 200 uM): 412 nM | apparent KD of K4 kissing-loop reporter (input ligand: arginine 13.2 mM): 554 nM | apparent KD of K4 kissing-loop reporter (input ligand: none): 684 nM | apparent KD of K4 kissing-loop reporter [1]: 771 nM | apparent KD of K4 kissing-loop reporter [2]: 617 nM

CCUGAAUCAGUGAGUGAUGUUCACGUCGAUACCAGCUAGGAUACUAGCCCUUGGCAGCGACAAUUGCCAAGUGUGGCUAGUCAAA [Theo B SS t8]
apparent KD of K4 kissing-loop reporter (input ligand: FMN 200 uM): 140 nM | apparent KD of K4 kissing-loop reporter (input ligand: arginine 13.2 mM): 134 nM | apparent KD of K4 kissing-loop reporter (input ligand: none): 160 nM | apparent KD of K4 kissing-loop reporter [1]: 148 nM | apparent KD of K4 kissing-loop reporter [2]: 147 nM

UUAGUCUAGAGAGGAUAUCAGUGAUGUUGAUAUCAAGAUCAUAGAUAGAAUUCUAUCUAUGAUCAAUGAGAAGGCUCUAGACAUU [AK1 Exc FMN B]
apparent KD of K4 kissing-loop reporter (input ligand: FMN 200 uM): 746 nM | apparent KD of K4 kissing-loop reporter (input ligand: arginine 13.2 mM): 141 nM | apparent KD of K4 kissing-loop reporter (input ligand: none): 161 nM | apparent KD of K4 kissing-loop reporter [1]: 155 nM | apparent KD of K4 kissing-loop reporter [2]: 163 nM

UAUAGGGAUAGUGAUGUUAUCCCAUGUGAUACCAGUGCCAUCCAACACCCUUGGCAGCAUACGGGCAGUGAUGUUGUUCUUGGUA [Exclusion Theophylline A GF 14]
apparent KD of K4 kissing-loop reporter (input ligand: FMN 200 uM): 102 nM | apparent KD of K4 kissing-loop reporter (input ligand: arginine 13.2 mM): 88.9 nM | apparent KD of K4 kissing-loop reporter (input ligand: none): 99.1 nM | apparent KD of K4 kissing-loop reporter [1]: 89.5 nM | apparent KD of K4 kissing-loop reporter [2]: 97.2 nM

CCUGAGUGAUGUUUAGGAGGCCCGAUAGAUACCAGAAAUACUGCGUUCCCUUGGCAGCUACGCGGACGGAAGACUACGUUACACG [theeternabot_exclusion_KL_Theo_A_16]
apparent KD of K4 kissing-loop reporter (input ligand: FMN 200 uM): 390 nM | apparent KD of K4 kissing-loop reporter (input ligand: arginine 13.2 mM): 222 nM | apparent KD of K4 kissing-loop reporter (input ligand: none): 324 nM | apparent KD of K4 kissing-loop reporter [1]: 379 nM | apparent KD of K4 kissing-loop reporter [2]: 325 nM

UUUCUACCGGGAAGGAGCGUGAAUGAUAAUGGAUAUAGUGAUGUUAUAUAUACGAACGAAUCGCAGGUAGGUCGCCCGGAUCCCU [SSArgB.V]
apparent KD of K4 kissing-loop reporter (input ligand: FMN 200 uM): 492 nM | apparent KD of K4 kissing-loop reporter (input ligand: arginine 13.2 mM): 594 nM | apparent KD of K4 kissing-loop reporter (input ligand: none): 593 nM | apparent KD of K4 kissing-loop reporter [1]: 549 nM | apparent KD of K4 kissing-loop reporter [2]: 496 nM

GCGCGGCAGGCGGCCGCCACUCUGACGAGCCACAGUGAUGUUGUGGUCGGAGUAACGUCUUCAUAGAGGACCGGGUUUGUUGUUC [Same State Typtophan A GF 26]
apparent KD of K4 kissing-loop reporter (input ligand: FMN 200 uM): 224 nM | apparent KD of K4 kissing-loop reporter (input ligand: arginine 13.2 mM): 212 nM | apparent KD of K4 kissing-loop reporter (input ligand: none): 239 nM | apparent KD of K4 kissing-loop reporter [1]: 290 nM | apparent KD of K4 kissing-loop reporter [2]: 230 nM

AUUGUAUACUGAAGGAGCGAGUAGUGGAAACAUAAACUCAUUGCGAGUGAUGUUCGCAGUACUCAGGUAGGUCGCAGUAAUGGUA [Exclusion Arginine B Gf 9]
apparent KD of K4 kissing-loop reporter (input ligand: FMN 200 uM): 756 nM | apparent KD of K4 kissing-loop reporter (input ligand: arginine 13.2 mM): 167 nM | apparent KD of K4 kissing-loop reporter (input ligand: none): 528 nM | apparent KD of K4 kissing-loop reporter [1]: 242 nM | apparent KD of K4 kissing-loop reporter [2]: 451 nM
